Laboratory results published in US20210253725A1 (BIONTECH, published 2021).

Key:
[1] = target: T1, CD137 expressed on the cell surface of HT1080_4-1BB cells (human, UniProt Q07011 24-255); experiment: HT1080_4-1BB cells, imaging; also: test concentration or dose not given here
T1 construct: whole, on cells; species not restated for the HT1080 transfectant

[2] = target: T1, CD137 expressed on the cell surface of …; experiment: cell-based or functional assay
[3] = target: T2, CD137 protein (His-tagged, Sino Biological Inc. 10041-H08H) (human, UniProt Q07011 24-186); experiment: ELISA, coated His-tagged CD137; also: test concentration or dose not given here
T2 construct: bought protein coated on ELISA plates; also called 4-1BB; TNFRSF9; not shown: His tag

human 4-1BB (CD137) = human 4-1BB (CD137) (human, UniProt Q07011 24-255); experiment: cell-based or functional assay
For Functional assay Cross-linked by F(ab′)2 fragment IL-8 in this document: test concentration or dose not given here.
For Functional assay IL-8 in this document: test concentration or dose not given here.

T1 sequence (Q07011 24-255): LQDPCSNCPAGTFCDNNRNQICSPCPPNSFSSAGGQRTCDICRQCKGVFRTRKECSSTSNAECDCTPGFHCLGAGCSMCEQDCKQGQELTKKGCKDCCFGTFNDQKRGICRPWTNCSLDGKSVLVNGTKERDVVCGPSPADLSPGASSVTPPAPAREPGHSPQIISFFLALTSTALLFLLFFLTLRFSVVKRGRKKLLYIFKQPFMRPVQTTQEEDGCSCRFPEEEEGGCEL
human 4-1BB (CD137), sequence (Q07011 24-255): as above

| Cellular binding assay [RFU] [1] [RFU] | Functional assay Cross-linked by F(ab′)2 fragment IL-8 [2] [abs. corr.] | Functional assay IL-8 [2] [abs. corr.] | ELISA [abs. corr.] [3] [abs. corr.] | EC 50 [ng/mL] of agonistic function (IL-8 release from CD137-overexpressing HT1080 cells, antibody cross-linked by F(ab')2 goat anti-human IgG) (human 4-1BB (CD137)) [ng/mL] | Binder |
| --- | --- | --- | --- | --- | --- |
| 19 | 1.14 | 0.222 | 2.07 |  | P018.S.14.A.G03 (antibody, V domains shown, V regions on human Ig constant parts; also called AB137_11) VH: QSLEESGGRLVTPGTPLTLTCTVSGIDLSSYHMCWVRQAPGKGLEYIGYIAYGGNTYYANWAKGRFTISKTSTTVDLRITSPTTEDTATYFCARGYSEDSYWGLWGPGTLVTVSS VL: AYDMTQTPASVEAAVGGTVTIKCQASQNIENYLAWYQQKPGQPPKLLIYDTSKLTSGVPSRFSGSGSGTDFTLTISGVQSDDAATYYCQQDYGIIFVDNIFGGGTEVVVK |
| 6 | 2.19 | 2.02 | 2.97 |  | P018.S.14.A.H01 (antibody, V domains shown, V regions on human Ig constant parts; also called AB137_12) VH: QSVEESGGRLVTPGTPLTLTCTVSGFSLSDYYMTWVRQAPGKGLEYIGIMSGSGSTYYASWAKGRFTISKTSSTTLELKITSPTTEDTAIYFCARDGDYAGWGYATGAFDPWGPGTLVTVSS VL: AAVLTQTPSPVSAAVGGTVTISCQASQSVVGNSLLSWFQKKPGQPPKLLIYSASSLASGVPSRFKGSGSGTQFTLTISDLESDDAATYYCTGRYNSDTDTFVFGGGTEVVVK |
|  |  |  |  | 5820 | P018.S.14.A.H01 (antibody, V domains shown) VH: QSVEESGGRLVTPGTPLTLTCTVSGFSLSDYYMTWVRQAPGKGLEYIGIMSGSGSTYYASWAKGRFTISKTSSTTLELKITSPTTEDTAIYFCARDGDYAGWGYATGAFDPWGPGTLVTVSS VL: AAVLTQTPSPVSAAVGGTVTISCQASQSVVGNSLLSWFQKKPGQPPKLLIYSASSLASGVPSRFKGSGSGTQFTLTISDLESDDAATYYCTGRYNSDTDTFVFGGGTEVVVK |
| 1 | 1.52 | -0.011 | 2.9 |  | P018.S.14.A.D06 (antibody, V domains shown, V regions on human Ig constant parts; also called AB137_10) VH: QSVEESGGRLVTPGTPLTLTCTVSGFSLSTYAMIWVRQAPGKGLEWIGVVYDNGYISHATWVKGRFTISKTSTTVGLEITSPTTEDTATYFCARSADGSWSTYFNLWGQGTLVTVSS VL: DIVMTQTPASVEAAVGGTVTIKCQASESISNYLAWYQQKPGQPPKLLIYKASTLASGVSSRFKGSGSGTEFTLTISDLESADAATYYCQTNYCCSSSDNGFAFGGGTEVVVK |
|  |  |  |  | 10200 | P018.S.14.A.D06 (antibody, V domains shown) VH: QSVEESGGRLVTPGTPLTLTCTVSGFSLSTYAMIWVRQAPGKGLEWIGVVYDNGYISHATWVKGRFTISKTSTTVGLEITSPTTEDTATYFCARSADGSWSTYFNLWGQGTLVTVSS VL: DIVMTQTPASVEAAVGGTVTIKCQASESISNYLAWYQQKPGQPPKLLIYKASTLASGVSSRFKGSGSGTEFTLTISDLESADAATYYCQTNYCCSSSDNGFAFGGGTEVVVK |
|  |  |  |  | 6790 | P018.S.14.A.A04 (antibody, V domains shown) VH: QSLEESGGRLVTPGTPLTLTCTVSGFSLNDYWMSWVRQAPGKGLEWIGYIDVGGSLYYASWAKGRFTISRTSTTVDLKMTSLTTEDTATYFCARGGLTYGFDLWGPGTLVTVSS VL: DIVMTQTPASVSEPVGGTVTINCQASEDISSYLAWYQQKPGQRPKRLIYGASDLASGVPSRFSASGSGTEYALTISDLESADAATYYCHYYATISGLGVAFGGGTEVVVK |

The next lines start with the binder.

| Binder | Cellular binding assay [RFU] [1] [RFU] | Functional assay Cross-linked by F(ab′)2 fragment IL-8 [2] [abs. corr.] | Functional assay IL-8 [2] [abs. corr.] | ELISA [abs. corr.] [3] [abs. corr.] | EC 50 [ng/mL] of agonistic function (IL-8 release from CD137-overexpressing HT1080 cells, antibody cross-linked by F(ab')2 goat anti-human IgG) (human 4-1BB (CD137)) [ng/mL] |
| --- | --- | --- | --- | --- | --- |
| P018.S.13.A.A06 (antibody, V domains shown, V regions on human Ig constant parts; also called AB137_5) VH: QSVEESGGRLVTPGTPLTLTCTASGFTISDFHVTWVRQAPGKGLEWIGTIITSASTTAYATWARGRFTISKSSTTVNLKIVSPTTEDTATYFCARSTYTDTSGYYFDFWGQGTLVTVSS VL: AQVLTQTASPVSAAVGGTVIINCQSSQSIYNGNRLSWYQQKPGQPPKLLIYSASTLASGVSSRFKGSGSGTQFTLAISDVQSDDAATYYCLGSYDCDSADCFAFGGGTEVVVE | 38 | 1.71 | -0.153 | 3.39 |  |
| P018.S.13.A.A06 (antibody, V domains shown) VH: QSVEESGGRLVTPGTPLTLTCTASGFTISDFHVTWVRQAPGKGLEWIGTIITSASTTAYATWARGRFTISKSSTTVNLKIVSPTTEDTATYFCARSTYTDTSGYYFDFWGQGTLVTVSS VL: AQVLTQTASPVSAAVGGTVIINCQSSQSIYNGNRLSWYQQKPGQPPKLLIYSASTLASGVSSRFKGSGSGTQFTLAISDVQSDDAATYYCLGSYDCDSADCFAFGGGTEVVVE |  |  |  |  | 7790 |
| P018.S.13.A.A05 (antibody, V domains shown, V regions on human Ig constant parts; also called AB137_4) VH: QSLEESGGRLVTPGTPLTLTCTASGFSLSRYDMSWVRQAPGKGLEYIGVISSSGGTNYANWAKGRFTISKTSTTVDLKITSPTTEDTATYFCAREGDYWDFNLWGPGTLVTVSS VL: AQVLTQTPSSVSAAVGGTVTINCQASQSISNLLAWYQQKPGQPPKLLIYGASTLASGVPSRFSGSGSGTEFTLTISDLESDDAATYYCAGGFPGLDTVAAFGGGTEAVVT | 0 | 2.57 | 0.559 | 0.687 |  |
| P018.S.13.A.G04 (antibody, V domains shown, V regions on human Ig constant parts; also called AB137_8) VH: QSLEESGGRLVTPGTPLTLTCTASGFSLSSYDMSWVRQAPGKGLEYIGYISSSGNTYYASWAKSRFTISKTSTTVDLKITSPTTEDTATYFCAREGDYWDFNLWGPGTLVTVSS VL: AQVLTQTPSSVSAAVGGTVTINCQASQSISNLLAWYQQKPGQRPRLLIYRASTLASGVPSRFKGSGSGTEFTLTISDLESEDAATYYCAGGFPGLDTGATFGGGTEAVVT | 1 | 1.8 | -0.179 | 0.577 |  |
| P018.S.13.A.G04 (antibody, V domains shown) VH: QSLEESGGRLVTPGTPLTLTCTASGFSLSSYDMSWVRQAPGKGLEYIGYISSSGNTYYASWAKSRFTISKTSTTVDLKITSPTTEDTATYFCAREGDYWDFNLWGPGTLVTVSS VL: AQVLTQTPSSVSAAVGGTVTINCQASQSISNLLAWYQQKPGQRPRLLIYRASTLASGVPSRFKGSGSGTEFTLTISDLESEDAATYYCAGGFPGLDTGATFGGGTEAVVT |  |  |  |  | 255000 |
| P018.S.08.A.E03 (antibody, V domains shown, V regions on human Ig constant parts; also called AB137_2) VH: QSVEESGGRLVTPGTPLTLTCTVSGFSLTYYAVTWVRQPPGKGLEWIGVIYDNGATAFATWAKGRFTMSKNSTTVALKVTSPTTEDTATYFCARSANNAWSTYSNLWGQGTLVTVSS VL: DIVMTQTPSSVSAAVGGTVTINCQASEDISSYLSWYQQKLGQPPKLLIYKASTLESGVPSRFKGSGSGTEYTLTISDLESDDAATYYCQSYYSGSISGYGFVFGGGTGVVVK | 9 | 2.02 | -0.304 | 3.05 |  |
| P018.S.08.A.A04 (antibody, V domains shown, V regions on human Ig constant parts; also called AB137_1) VH: QSVEESGGRLVTPGTPLTLTCTVSGFSLSSYAVSWVRQAPGKGLEWIGVIWNNGATHYATWAKGRFTISKASTTVDLKVTSPTTEDTATYFCARSANDAWSTYSDLWGQGTLVTVSS VL: DIVMTQTPASVEAAVGGTVTIKCQASQTITNYLSWYQQKPGQPPKLLIYKASTLTSGVSSRFKGSGSGTEFTLTISDLESDDAATYYCQNYYYGSSSGYGFVFGGGTEVVVK | 46 | 1.55 | 0.368 | 3.42 |  |
| P018.S.13.A.G03 (antibody, V domains shown, V regions on human Ig constant parts; also called AB137_7) VH: QSLEESGGRLVTPGTPLTLTCTASGFSLSSYDVSWVRQAPGKGLEYIGFIGSDGSAHYATWVKGRFTISKTSTTVDLKITSPTTEDTATYFCARDWNDYWAHDLWGPGTLVTVSS VL: AQVLTQTTSPVSAAVGGTVTINCQASQIVTSKSALSWYQQKPGQPPRLLIYKASTLASGVPSRFSGSGSGTQFTLTISDLESDDAATYYCAGGYYNSGDLNPFGGGTEVVVK | 13 | 0.789 | -0.164 | 1.73 |  |
| P018.S.13.A.C02 (antibody, V domains shown, V regions on human Ig constant parts; also called AB137_6) VH: QSVEESGGRLVTPGTPLTLTCTVSGFSLSSYAMSWVRQAPGKGLEWIGIISTSGITYYASWAKGRFTISKTSTMVDLKITSPTTEDTATYFCARLNGFDDYVRYFDFWGLGTLVTVSS VL: AIELTQTPSSVSAAVGGTVTINCQASESIASNLAWYQQKPGQPPKLLIYAASYLASGVPSRFKGSGSGTEYTLTISGVQSADAATYYCQSAFYVSSSDNAFGGGTEVVVK | 8 | 1.4 | 0.113 | 2.55 |  |
| P018.S.08.A.F03 (antibody, V domains shown, V regions on human Ig constant parts; also called AB137_3) VH: QSVEESGGRLVTPGTPLTLTCTASGFTISSYHMIWVRQAPGEGLEWIGDIYGGTATTDYASWAKGRFTISKTSTTVDLKMTSLTTEDTATYFCARARYSGGSYANYVFNLWGQGTLVTVSS VL: DIVMTQTPASVEAAVGGTVTIKCQASQSISSYLAWYQQKPGQPPKLLIYRTSTLESGVPSRFKGSGSGTEFTLTISDLESADAATYYCQGYDWSSSNRYDNTFGGGTEVVVK | 7 | 1.36 | -0.346 | 2.33 |  |
| P018.S.14.A.A04 (antibody, V domains shown, V regions on human Ig constant parts; also called AB137_9) VH: QSLEESGGRLVTPGTPLTLTCTVSGFSLNDYWMSWVRQAPGKGLEWIGYIDVGGSLYYASWAKGRFTISRTSTTVDLKMTSLTTEDTATYFCARGGLTYGFDLWGPGTLVTVSS VL: DIVMTQTPASVSEPVGGTVTINCQASEDISSYLAWYQQKPGQRPKRLIYGASDLASGVPSRFSASGSGTEYALTISDLESADAATYYCHYYATISGLGVAFGGGTEVVVK | 81 | 0.972 | 0.785 | 3.44 |  |
